B1: Twister Ribozyme (parent)
chain: AACACUGCCAAUGCCGGUCCCAAGCCCGGAUAAAAGUGGAGGGGGCGG

Variants of: B1
Experiment: self-cleavage, relative activity (ratio to wild type); higher = more cleavage; co-transcriptional

Variant | self-cleavage
AACACUGCCAAUACCGGUCCCAAGCCCGGAUAAAAUUGGAGGGGGCGG [G13A G36U] | 0.139
AACACUGCCAAUACCGGUCCCAAGCCCGGAUAAAAAUGGAGGGGGCGG [G13A G36A] | 0.162
AACACUGCCAAUACCGGUCCCAAGCCCGGAUAAAAGUGGAGGGGGCGG [G13A] | 1.05
AACACUGCCAAUCCCGGUCCCAAGCCCGGAUAAAAGUGGAGGGGGCGG [G13C] | 0.584
AACACUGCCAAUCCCGGUGCCAAGCCCGGAUAAAAGUGGAGGGGGCGG [G13C C19G] | 0.125
AACACUGCCAAUCCCGGUUCCAAGCCCGGAUAAAAGUGGAGGGGGCGG [G13C C19U] | 0.0706
AACACUGCCAAUACCGGUCCCAAGCCCGGAUAAAAGUGGAGGGGUCGG [G13A G45U] | 0.539
AACACUGCCAAUACCGGUCCCAAGCCCGGAUAAAAGUGGAGGGGACGG [G13A G45A] | 0.724
AACACUGCCAAUCCCGGUCCCAAGCCCGGAUAAAAGUGGGGGGGGCGG [G13C A40G] | 0.0963
AACACUGCCAAUCCCGGUCCCAAGCCCGGAUAAAAGUGGUGGGGGCGG [G13C A40U] | 0.109
AACACUGCCAAUCCCGGUCCCAAGCCCGAAUAAAAGUGGAGGGGGCGG [G13C G29A] | 0.411
AACACUGCCAAUCCCGGUCCCAAGCCCGUAUAAAAGUGGAGGGGGCGG [G13C G29U] | 0.46
AACACUGCCAAUCCCGGUCCCAAGCCCGCAUAAAAGUGGAGGGGGCGG [G13C G29C] | 0.477
AACACUGCCAAUCCCGGUCCCAAGCCCGGAUAAAAGUGGAAGGGGCGG [G13C G41A] | 0.0914
AACACUGCCAAUCCCGGUCCCAAGCGCGGAUAAAAGUGGAGGGGGCGG [G13C C26G] | 0.101
AACACUGCCAAUCCCGGUCCCAAGCCCGGAUAAAAGUGCAGGGGGCGG [G13C G39C] | 0.117
AACACUGCCAAUCCCGGUCCCAAGCCCGGAUAAAAGUGUAGGGGGCGG [G13C G39U] | 0.108
AACACUGCCAAGGCCGGUCCCAAGCCCGGAUAAAAGUGGAGGGGUCGG [U12G G45U] | 0.419
AACACUGCCAAGGCCGGUCCCAAGCCCGGAUAAAAGUGGAGGGGCCGG [U12G G45C] | 0.288
AACACUGCCAAUCCCGGUCCCAAGCCCUGAUAAAAGUGGAGGGGGCGG [G13C G28U] | 0.255
AACACUGCCAAUCCCGGUCCCAAGCCCCGAUAAAAGUGGAGGGGGCGG [G13C G28C] | 0.31
AACACUGCCAAUCCCGGUCCCAAGCCCAGAUAAAAGUGGAGGGGGCGG [G13C G28A] | 0.307
AACACUGCCAAUACCGGUCCCAAGCCCGGAUAAAAGUGGGGGGGGCGG [G13A A40G] | 0.185
AACACUGCCAAUCCCGGUCCCAAGCCCGGAUAAAACUGGAGGGGGCGG [G13C G36C] | 0.122
AACACUGCCAAUCCCGGUCCCAAGCCCGGAUAAAAAUGGAGGGGGCGG [G13C G36A] | 0.126
AACACUGCCAAGGCCGGUCCCAAGCCCGGAUAAAAGUGGAGGUGGCGG [U12G G43U] | 0.454
AACACUGCCAAGGCCGGUCCCAAGCCCGGAUAAAAGUGGAGGCGGCGG [U12G G43C] | 0.274

Variant | self-cleavage
AACACUGCCAAUCACGGUCCCAAGCCCGGAUAAAAGUGGAGGGGGCGG [G13C C14A] | 0.593
AACACUGCCAAUCCCGGUCCCCAGCCCGGAUAAAAGUGGAGGGGGCGG [G13C A22C] | 0.71
AACACUGCCAAUAACGGUCCCAAGCCCGGAUAAAAGUGGAGGGGGCGG [G13A C14A] | 0.685
AACACUGCCAAUACCGGUCCCAAGCCCGGAUAAACGUGGAGGGGGCGG [G13A A35C] | 1.02
AACACUGCCAAUACCGGUCCCAAGCCCGGAUAAAUGUGGAGGGGGCGG [G13A A35U] | 0.978
AACACUGCCAAUACCGGUCCCAAGCCCGGAUAAAGGUGGAGGGGGCGG [G13A A35G] | 0.203
AACACUGCCAAUACCGGUCCCAAGCCCGGAGAAAAGUGGAGGGGGCGG [G13A U31G] | 1.01
AACACUGCCAAUACCGGUCCCAAGCCCGGACAAAAGUGGAGGGGGCGG [G13A U31C] | 0.962
AACACUGCCAAUACCGGUCCCAAGCCCGGAUAAAAGUCGAGGGGGCGG [G13A G38C] | 0.78
AACACUGCCAAUACCGGUCCCAAGCCCGGAUAAAAGUAGAGGGGGCGG [G13A G38A] | 0.581
AACACUGCCAAUCCCGGUCCCAUGCCCGGAUAAAAGUGGAGGGGGCGG [G13C A23U] | 0.0457
AACACUGCCAAUACCGGUCCCAAGCCCGGGUAAAAGUGGAGGGGGCGG [G13A A30G] | 0.742
AACACUGCCAAUACCGGUCCCAAACCCGGAUAAAAGUGGAGGGGGCGG [G13A G24A] | 0.0967
AACACUGCCAAUACCGGUCCCAAUCCCGGAUAAAAGUGGAGGGGGCGG [G13A G24U] | 0.13
AACACUGCCAAUACCGGUCCCAACCCCGGAUAAAAGUGGAGGGGGCGG [G13A G24C] | 0.129
AACACUGCCAAUCCCGGUCCCAAGCCCGGAUAGAAGUGGAGGGGGCGG [G13C A33G] | 0.676
AACACUGCCAAUCCCGGUCCCAAGCCCGGAUAUAAGUGGAGGGGGCGG [G13C A33U] | 0.335
AACACUGCCAAUACCGGUCCCAAGCACGGAUAAAAGUGGAGGGGGCGG [G13A C26A] | 0.095
AACACUGCCAAUACCGGUCCCAAGCGCGGAUAAAAGUGGAGGGGGCGG [G13A C26G] | 0.0899
AACACUGCCAAUACCGGUCCCAAGCCCGGAUAAAAGUGGAGGGAGCGG [G13A G44A] | 1.04
AACACUGCCAAUACCGGUCCCAAGCCCGGAUAAAAGUGGAGGGCGCGG [G13A G44C] | 0.746
AACACUGCCAAUACCGGUCCCAAGCCCGGAUAAAAGUGGAGGGUGCGG [G13A G44U] | 0.845
AACACUGCCAAGGCCGGUCCCAAGCCCGGAUAAAAGUGGACGGGGCGG [U12G G41C] | 0.315
AACACUGCCAAGGCCGGUCCCAAGCCCGGAUAAAAGUGGAUGGGGCGG [U12G G41U] | 0.783
AACACUGCCAAGGCCGGUCCCAAGCCCGGAUAAAAGUGGAGGGGGCGU [U12G G48U] | 0.789
AACACUGCCAAUCCCGGUCCCAAGCCCGGGUAAAAGUGGAGGGGGCGG [G13C A30G] | 0.502
AACACUGCCAAUACCGAUCCCAAGCCCGGAUAAAAGUGGAGGGGGCGG [G13A G17A] | 0.121

From the RNAGym collection of RNA variant scans (doi:10.7554/elife.80360)
